Data from patent US20240116985A1, “STAPLED PEPTIDES AND METHODS THEREOF” (priority 2020, published 2024).
Starred links: 1 amine or outer side, 2 acyl side, 3 side chain; linkers in the order of their positions; H or OH if unused. Positions of bridges follow the written chain, without caps; N, C: chain ends. Non-standard residues stand in square brackets, D forms with d. Primed or numbered codes have the meaning given here. PyrS2″ = (S)-3-amino-1-((pent-4-en-1-yloxy)carbonyl)pyrrolidine-3-carboxylic acid (stapling residue), C=CCCCOC(=O)N1CC[C@@](N[*:1])(C(=O)[*:2])C1; B5(4) = 2,2-bis(4-pentenyl)glycine = 2-amino-2-(pent-4-en-1-yl)hept-6-enoic acid (stitching residue), C=CCCCC(CCCC=C)(N[*:1])C(=O)[*:2]; B5(5) = 2,2-bis(4-pentenyl)glycine, 2-amino-2-(pent-4-en-1-yl)hept-6-enoic acid (stitching residue), C=CCCCC(CCCC=C)(N[*:1])C(=O)[*:2]; B5(3) = 2,2-bis(4-pentenyl)glycine (stitching residue), C=CCCCC(CCCC=C)(N[*:1])C(=O)[*:2]; Phe(2-Cl) = N[C@@H](Cc1ccccc1Cl)C(=O)O; Phe(2-OMe) = COc1ccccc1C[C@H](N)C(=O)O; Bta = N[C@@H](Cc1csc2ccccc12)C(=O)O; αAllylPro = C=CC[C@@]1(C(=O)O)CCCN1; tBuAla = CC(C)(C)C[C@H](N)C(=O)O; 3Thi = N[C@@H](Cc1ccsc1)C(=O)O; Cha = N[C@@H](CC1CCCCC1)C(=O)O; S8 = C=CCCCCCC[C@](C)(N)C(=O)O; Nle = CCCC[C@H](N)C(=O)O; Aib = CC(C)(N)C(=O)O

B1: I-728 (peptide)
peptide: Ac-[αAllylPro]DI[B5(4)]DEAA[Nle]Q[S8]F[Bta]Q-NH2
modifications: staple 1-4, 4-11
B2: I-736 (peptide)
peptide: Ac-[αAllylPro]DL[B5(5)]DEAAFN[S8]F[Bta]Q[Aib]-NH2
modifications: staple 1-4, 4-11; also: earlier-eluting staple isomer
B3: I-737 (peptide)
peptide: Ac-[αAllylPro]DL[B5(5)]DEAAFN[S8]F[Bta]Q[Aib]-NH2
modifications: staple 1-4, 4-11; also: later-eluting staple isomer
B4: I-743 (peptide)
peptide: Ac-[αAllylPro]DL[B5(5)]DEAAFN[S8]F[Bta]H[Aib]-NH2
modifications: staple 1-4, 4-11
B5: I-727 (peptide)
peptide: Ac-[αAllylPro]DI[B5(4)]DEAA[tBuAla]Q[S8]F[Bta]Q-NH2
modifications: staple 1-4, 4-11
B6: I-556 (peptide)
peptide: Ac-[αAllylPro]DI[B5(4)]DDAAFN[S8][3Thi][Bta]H-NH2
modifications: staple 1-4, 4-11
B7: I-1096 (peptide)
peptide: Ac-[αAllylPro]D[tBuAla][B5(3)]DEAAFL[S8][Phe(2-Cl)][Bta]Q-NH2
modifications: staple 1-4, 4-11
B8: I-1104 (peptide)
peptide: Ac-[αAllylPro]D[Cha][B5(3)]DDAAFS[PyrS2″][Phe(2-OMe)][Bta]S-NH2
modifications: staple 1-4, 4-11
B9: I-1094 (peptide)
peptide: Ac-[αAllylPro]D[tBuAla][B5(4)]DEAAFT[S8][Phe(2-Cl)][Bta][dT]-NH2
modifications: staple 1-4, 4-11; also: later eluting HPLC peak staple isomer composition
B10: I-1112 (peptide)
peptide: Ac-[αAllylPro]D[Cha][B5(5)]DDAAFL[PyrS2″][Phe(2-Cl)][Bta]S-NH2
modifications: staple 1-4, 4-11
B11: I-544 (peptide)
peptide: Ac-[αAllylPro]D[tBuAla][B5(4)]DEAAFQ[S8]F[Bta]Q-NH2
modifications: staple 1-4, 4-11
B12: I-555 (peptide)
peptide: Ac-[αAllylPro]DI[B5(4)]DDAAFN[S8][3Thi][Bta]H-NH2
modifications: staple 1-4, 4-11
B13: I-551 (peptide)
peptide: Ac-[αAllylPro]DI[B5(4)]DDAAFN[S8][3Thi][Bta]Q-NH2
modifications: staple 1-4, 4-11
B14: I-1107 (peptide)
peptide: Ac-[αAllylPro]D[Cha][B5(3)]DDAAF[Cha][PyrS2″][Phe(2-Cl)][Bta]Q-NH2
modifications: staple 1-4, 4-11
B15: I-1098 (peptide)
peptide: Ac-[αAllylPro]D[tBuAla][B5(5)]DEAAFL[S8][Phe(2-Cl)][Bta][dT]-NH2
modifications: staple 1-4, 4-11
B16: I-1093 (peptide)
peptide: Ac-[αAllylPro]D[tBuAla][B5(4)]DEAAFT[S8][Phe(2-Cl)][Bta][dT]-NH2
modifications: staple 1-4, 4-11; also: earlier eluting HPLC peak staple isomer composition
B17: I-1103 (peptide)
peptide: Ac-[αAllylPro]D[tBuAla][B5(3)]DDAAFS[PyrS2″][Phe(2-OMe)][Bta]S-NH2
modifications: staple 1-4, 4-11

molecular target: full-length beta-Catenin (Uniprot ID P35222) (Homo sapiens (Human)) (UniProt P35222); assay: fluorescence polarization competition; full-length beta-catenin, competitor 5FAM-TCF4(10-53) probe
Target sequence in this assay (P35222 whole entry, the tested form may be a part): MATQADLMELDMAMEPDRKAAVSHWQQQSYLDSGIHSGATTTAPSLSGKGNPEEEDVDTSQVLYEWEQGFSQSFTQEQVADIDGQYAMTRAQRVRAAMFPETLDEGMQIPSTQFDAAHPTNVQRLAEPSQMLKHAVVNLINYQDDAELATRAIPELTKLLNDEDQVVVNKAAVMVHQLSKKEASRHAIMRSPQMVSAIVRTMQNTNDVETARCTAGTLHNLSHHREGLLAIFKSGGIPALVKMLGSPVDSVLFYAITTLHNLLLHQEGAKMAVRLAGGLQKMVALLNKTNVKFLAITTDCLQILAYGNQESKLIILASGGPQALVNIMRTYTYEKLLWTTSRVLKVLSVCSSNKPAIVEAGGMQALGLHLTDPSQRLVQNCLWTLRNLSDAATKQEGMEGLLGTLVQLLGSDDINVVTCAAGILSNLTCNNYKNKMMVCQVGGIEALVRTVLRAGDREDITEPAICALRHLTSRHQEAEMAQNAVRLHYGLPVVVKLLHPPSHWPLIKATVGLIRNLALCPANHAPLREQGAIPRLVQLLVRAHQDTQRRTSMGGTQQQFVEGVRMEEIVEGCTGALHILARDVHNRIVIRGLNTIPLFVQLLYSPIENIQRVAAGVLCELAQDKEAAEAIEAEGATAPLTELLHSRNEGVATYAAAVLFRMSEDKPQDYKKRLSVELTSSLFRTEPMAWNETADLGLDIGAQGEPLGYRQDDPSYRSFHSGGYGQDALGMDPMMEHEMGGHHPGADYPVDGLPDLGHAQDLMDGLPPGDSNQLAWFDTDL

IC50 [nM] | Binder
289 | B1
440 | B2
353 | B3
85 | B4
5000 | B5

molecular target: full-length beta-Catenin (Uniprot ID P35222) (Homo sapiens (Human)) (UniProt P35222); assay: fluorescence polarization competition; displacement of 5FAM-TCF4(10-53) from full-length beta-catenin
Target sequence in this assay (P35222 whole entry, the tested form may be a part): as above

EC50 [nM] | IC50 [nM] | Binder
20 |  | B6
 | 17 | B7
 | 10 | B8
 | 46 | B9
 | 40 | B10
24 |  | B11
41 |  | B12
45 |  | B13
 | 18 | B14
 | 100 | B15
 | 43 | B16
 | 15 | B17

molecular target: full-length beta-Catenin (Uniprot ID P35222) (Homo sapiens (Human)) (UniProt P35222); assay: fluorescence polarization competition; full-length beta-catenin + 5FAM-TCF4(10-53) probe as competitor
Target sequence in this assay (P35222 2-781 limits assumed): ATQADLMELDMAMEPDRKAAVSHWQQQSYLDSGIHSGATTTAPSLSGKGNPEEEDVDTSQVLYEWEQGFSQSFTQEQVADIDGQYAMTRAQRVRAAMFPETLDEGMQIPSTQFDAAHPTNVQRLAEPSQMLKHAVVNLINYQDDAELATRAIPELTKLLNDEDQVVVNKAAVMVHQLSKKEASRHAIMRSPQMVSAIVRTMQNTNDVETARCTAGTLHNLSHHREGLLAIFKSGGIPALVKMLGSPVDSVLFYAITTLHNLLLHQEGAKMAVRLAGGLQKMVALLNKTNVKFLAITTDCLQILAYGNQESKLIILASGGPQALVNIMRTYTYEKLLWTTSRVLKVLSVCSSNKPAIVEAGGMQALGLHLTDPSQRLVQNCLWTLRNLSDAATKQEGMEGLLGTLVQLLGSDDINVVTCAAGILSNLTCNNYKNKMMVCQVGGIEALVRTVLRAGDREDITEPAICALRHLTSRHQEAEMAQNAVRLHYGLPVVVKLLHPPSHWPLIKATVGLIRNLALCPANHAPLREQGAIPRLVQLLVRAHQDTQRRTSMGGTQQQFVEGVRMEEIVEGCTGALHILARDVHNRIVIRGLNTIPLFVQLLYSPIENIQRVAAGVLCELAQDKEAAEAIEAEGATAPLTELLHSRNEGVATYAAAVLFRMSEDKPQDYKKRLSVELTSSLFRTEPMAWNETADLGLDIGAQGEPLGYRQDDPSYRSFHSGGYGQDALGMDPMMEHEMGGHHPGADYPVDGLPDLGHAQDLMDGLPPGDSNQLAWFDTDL

EC50 [nM] | Binder
17 | B7
10 | B8
46 | B9
40 | B10
18 | B14
100 | B15
43 | B16
15 | B17

molecular target: full-length beta-Catenin (Uniprot ID P35222) (Homo sapiens (Human)) (UniProt P35222); assay: fluorescence polarization competition; full-length beta-catenin with 5FAM-labeled TCF4 residues 10-53 probe as competitor
Target sequence in this assay (P35222 whole entry, the tested form may be a part): as the sequence (P35222 whole entry, the tested form may be a part) above

IC50 [nM] | EC50 [nM] | Binder
20 |  | B6
24 |  | B11
41 |  | B12
45 |  | B13
 | 289 | B1
 | 440 | B2
 | 353 | B3
 | 85 | B4
 | 5000 | B5
